Data set [1] relates to C=C(OP(=O)(O)O)C(=O)O. Put plainly: purified protein, by the assay type. The following applies: other: substrate saturation; Bacterial EPSPS / CP4.
Substrate in data set [2]: C=C(OP(=O)(O)O)C(=O)O
Put plainly: Substrate saturation kinetic analysis with glyphosate, H6-A69V. Format: biochemical, Zea mays. The following applies: other: substrate saturation.

Substrate in data set [3]: C=C(OP(=O)(O)O)C(=O)O
Put plainly: Substrate saturation kinetic analysis with glyphosate, H6-D196V. Format: biochemical, Zea mays. As to conditions: other: substrate saturation.

Substrate in data set [4]: C=C(OP(=O)(O)O)C(=O)O
In words: Substrate saturation kinetic analysis with glyphosate, H6-R61Y. Format: biochemical, Zea mays. The following applies: other: substrate saturation.

Residue numbers refer to the chain shown, from its start. Numbers in names are those of the source.

In the case of “Bacterial EPSPS (CP4) (Agrobacterium sp. CP4)”, in data set [1], the Km (as a rule, the concentration of substrate that gives half-maximal velocity) worked out at 15.8 µM; the kcat – broadly, the number of substrate molecules converted per active site and unit of time at saturation – was determined as 20.32 s⁻¹.

B1: Zea mays EPSPS variant Zm-H6 (868-H6) with A69V (H6-A69V) (Zea mays; A1R/A3W/A415G/A68V/A71Q/D401G/E301S/E390G/G101A/I207L/K83R/L97C/T278A/T360S/T440Q/V437R) (protein)
chain: MRGWEEIVLQPIKEISGTVKLPGSKSLSNRILLLAALSEGTTVVDNLLNSEDVHYMLGALRTLGLSVEVDKQAKRAVVVGCGGRFPVEDAKEEVQLFCGNAATAMRPLTAAVTAAGGNATYVLDGVPRMRERPIGDLVVGLKQLGADVDCFLGTDCPPVRVNGIGGLPGGKVKLSGSISSQYLSALLMAAPLALGDVEIEIIDKLISLPYVEMTLRLMERFGVKAEHSDSWDRFYIKGGQKYKSPKNAYVEGDASSASYFLAGAAITGGTVTVEGCGTASLQGDVKFAEVLEMMGAKVTWTSTSVTVTGPPREPFGRKHLKAIDVNMNKMPDVAMTLAVVALFADGPTAIRDVASWRVKESERMVAIRTELTKLGASVEEGPDYCIITPPGKLNVTAIDTYGDHRMAMAFSLAACGEVPVTIRDPGCTRKTFPDYFDRLSQFVKN
As to B1, in data set [2], the Michaelis constant (Km) worked out at 21.1 µM and the kcat came out at 2.68 s⁻¹.

B2: Zea mays EPSPS variant Zm-H6 (868-H6) with D196V (H6-D196V) (Zea mays; A1R/A3W/A415G/A71Q/D195V/D401G/E301S/E390G/G101A/I207L/K83R/L97C/T278A/T360S/T440Q/V437R) (protein)
chain: B1 chain with V69A, D196V
notes: shuffled variant 868-H6 plus D196V; E. coli BL21(DE3), Ni-NTA purified
In the case of B2, in data set [3], the Km was 61.8 µM and the kcat stood at 2.73 s⁻¹.

B3: Zea mays EPSPS variant Zm-H6 (868-H6) with R61Y (H6-R61Y) (Zea mays; A1R/A3W/A415G/A71Q/D401G/E301S/E390G/G101A/I207L/K83R/L97C/R60Y/T278A/T360S/T440Q/V437R) (protein)
chain: B1 chain with R61Y, V69A
notes: 868-H6 plus R61Y; E. coli BL21(DE3), Ni-NTA purified
As to B3, in data set [4], the Km was found to be 23.6 µM and the kcat came out at 2.08 s⁻¹.

(Values after patent US11549123B2, “Plant EPSP synthases and methods of use” (PIONEER HI-BRED INTERNATIONAL, INC., priority 2015, dated 2023).)
